Substitutions are numbered along the chain they refer to. In names and notes the source's numbering stands. Blank lines part the entries; values can stand above or below the molecule they belong to.
How the values were obtained:
Type in all cases: biochemical
FXa [1] = target: T1, FXa (Homo sapiens, UniProt P00742); test: Unaccelerated ZPI–FXa reactions: kinetics and stoichiometry of inhibition; conditions: for ka,app: absence of PZ, 2.5 mM CaCl2, pH 7.4, 25 °C
T1 construct: purchased Enzyme Research Laboratories
Protocol: (§1) Apparent second-order rate constants for unaccelerated and H50-accelerated ZPI–FXa reactions were measured in the absence and presence of the optimal H50 concentration under pseudo–first-order conditions by analyzing full ZPI–FXa reaction progress curves over the ZPI concentration range of 10 to 900 nM with ∼0.5 nM FXa. Full reaction progress curves were also measured for ZPI–FXa reactions in the presence of PZ equimolar with ZPI, 25 μM lipid, and 5 mM CaCl2, as a function of the ZPI concentration in the range of 10 to 40 nM. Identical reaction mixtures were quenched at varying reaction times with substrate, and the time course of protease inactivation was measured from the decrease in initial rates of substrate hydrolysis. The first-order rate of decrease in protease activity with time was computer fit by a single exponential decay function with a nonzero end point and kobs obtained from the fitted exponential decay constant. Apparent second-order association rate constants (ka,app) were obtained from the slopes of linear plots of kobs versus the ZPI concentration according to the equation, kobs=kd+ka,app × [ZPI]0
(§2) In which kd represents the rate constant for ZPI–FXa complex dissociation and [ZPI]o is the total ZPI concentration. kd was fixed at the experimentally determined value of 10^−4 s^−1 for WT and ZPI mutants as described ([18]).
(§3) Fixed concentrations of FXa (50–100 nM FXa) were reacted with increasing concentrations of ZPI, ranging from a approximately threefold to sevenfold molar excess, in the absence of cofactors or in the presence of either 1 μM H50 or PZ equimolar with ZPI, 25 μM lipid, and 5 mM CaCl2, in kinetics buffer at 25 °C in reaction volumes of 50 μl. After allowing sufficient time to reach a reaction end point, based on measured second-order associate rate constants (∼5–30 min), remaining proteolytic activity was measured by reacting an aliquot (5–20 μl) of the reaction mixtures with 1 ml of 100 μM Spectrozyme fXa (American Diagnostica) containing 50 μg/ml Polybrene and 5 mM EDTA and monitoring the rate of absorbance change at 405 nm. The apparent SI was determined from the fitted abscissa intercept of a linear plot of residual protease activity against the molar ratio of inhibitor to protease ([18]). Because the ZPI–PZ complex dissociates to a small extent over the reaction time, apparent SIs depend on the time of incubation. To correct for such complex dissociation, apparent SIs were multiplied by the factor, exp (−kd × t), where kd is the measured complex dissociation rate constant of 10^−4 s^−1 and t the fixed reaction time. Simulations verified the validity of this correction for small extents of dissociation. Reported SIs are average values of at least two independent measurements at different reaction times.

FXa [2] = target: T1, FXa; test: PZ-accelerated ZPI–FXa reactions: kinetics and stoichiometry of inhibition; conditions: for PZ enhancement: ratio of PZ-accelerated to unaccelerated ka,app × SI; for SI / ka,app × SI / ka,app × SI relative to WT: PZ-accelerated; for ka,app: equimolar PZ, 25 μM phospholipid, 5 mM CaCl2, pH 7.4, 25 °C
Protocol: as §1, §2, §3

FXa [3] = target: T1, FXa; test: H50 heparin-accelerated ZPI–FXa reactions: kinetics and stoichiometry of inhibition; conditions: for SI / ka,app × SI / ka,app × SI relative to WT: 1 μM H50; for ka,app: 1 μM H50, 2.5 mM CaCl2, pH 7.4, 25 °C; for H50 rate enhancement: ratio of heparin-accelerated to unaccelerated ka,app × SI
Protocol: Heparin accelerating effects on the kinetics of ZPI–FXa reactions were evaluated as a function of heparin concentration under pseudo–first-order conditions (i.e., with a large molar excess of inhibitor over protease) by incubating reaction mixtures of 100 μl containing 70 nM ZPI and ∼0.5 nM FXa in the absence or presence of varying levels of H50 ranging from 10^−9 to 10^−4 M in 20 mM Tris buffer (pH 7.4), 0.1 M NaCl, 0.1% PEG 8000, 0.1 mg/ml BSA, and 2.5 mM CaCl2 at 25 °C for reaction times of 2 to 5 min. Reactions were quenched by adding 1 ml of 50 μM Pefafluor FXa substrate (Centerchem, Inc) containing 50 μg/ml polybrene and 5 mM EDTA. The initial linear rate of substrate hydrolysis was monitored at an excitation wavelength of 380 nm and an emission wavelength of 440 nm. The observed pseudo–first-order rate constant for reactions (kobs) was calculated from the equation, kobs=In([vo-v∞]/[vt-v∞])/t
where vt and v∞ are the initial velocities of protease hydrolysis of the substrate after reaction with ZPI for the fixed reaction time and after reaching the reaction end point, respectively, vo is the velocity measured in control reactions without ZPI, and t is the fixed reaction time. The dependence of kobs on heparin concentration was computer fit by nonlinear least squares analysis by the ternary complex bridging model equation ([10]).
as §1, §2
as §3, with “Simulations verified the validity of this correction for small extents of dissociation. Reported SIs are average values of at least two independent measurements at different reaction times.” left out

T1 sequence (P00742 235-488 limits assumed): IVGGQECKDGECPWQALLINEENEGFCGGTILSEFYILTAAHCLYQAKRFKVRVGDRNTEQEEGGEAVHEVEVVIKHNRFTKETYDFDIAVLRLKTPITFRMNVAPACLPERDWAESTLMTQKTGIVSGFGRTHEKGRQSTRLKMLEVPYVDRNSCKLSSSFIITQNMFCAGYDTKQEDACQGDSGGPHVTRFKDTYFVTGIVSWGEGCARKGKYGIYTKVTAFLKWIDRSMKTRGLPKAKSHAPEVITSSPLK
T1 sequence (P00742 41-179 limits assumed): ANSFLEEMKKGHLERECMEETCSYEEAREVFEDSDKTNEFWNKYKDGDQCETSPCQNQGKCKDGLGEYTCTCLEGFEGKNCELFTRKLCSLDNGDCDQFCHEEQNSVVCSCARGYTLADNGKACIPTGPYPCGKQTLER

SI (FXa [1]): 2.6 ± 0.1 moles ZPI/mole FXa
ka,app × SI (FXa [1]): 1.1 ± 0.1 × 10^4 M^−1 s^−1
ka,app × SI relative to WT (FXa [1]): (0.69)
ka,app (FXa [1]): 4.1 ± 0.2 × 10^3 M^−1 s^−1
PZ enhancement (FXa [2]): greatly abrogated the acceleration
SI (FXa [3]): 1.7 ± 0.1 moles ZPI/mole FXa
ka,app × SI (FXa [3]): 8.5 ± 0.6 × 10^5 M^−1 s^−1
ka,app × SI relative to WT (FXa [3]): (0.71)
ka,app (FXa [3]): 5.0 ± 0.2 × 10^5 M^−1 s^−1
B1: D293A: ZPI mutant in the PZ-binding site hot spot residue (protein, UniProt Q9UK55 22-444, looked up, variant D293A)
Protein Z-dependent protease …: LAPSPQSPETPAPQNQTSRVVQAPKEEEEDEQEASEEKASEEEKAWLMASRQQLAKETSNFGFSLLRKISMRHDGNMVFSPFGMSLAMTGLMLGATGPTETQIKRGLHLQALKPTKPGLLPSLFKGLRETLSRNLELGLTQGSFAFIHKDFDVKETFFNLSKRYFDTECVPMNFRNASQAKRLMNHYINKETRGKIPKLFDEINPETKLILVDYILFKGKWLTPFDPVFTEVDTFHLDKYKTIKVPMMYGAGKFASTFDKNFRCHVLKLPYQGNATMLVVLMEKMGDHLALEAYLTTDLVETWLRNMKTRNMEVFFPKFKLDQKYEMHELLRQMGIRRIFSPFADLSELSATGRNLQVSRVLQRTVIEVDERGTEAVAGILSEITAYSMPPVIKVDRPFHFMIYEETSGMLLFLGRVVNPTLL

SI (FXa [1]): 2.4 ± 0.2 moles ZPI/mole FXa
ka,app × SI (FXa [1]): 1.8 ± 0.2 × 10^4 M^−1 s^−1
ka,app × SI relative to WT (FXa [1]): (1.1)
ka,app (FXa [1]): 7.3 ± 0.4 × 10^3 M^−1 s^−1
SI (FXa [2]): 3.3 ± 0.1 moles ZPI/mole FXa
ka,app × SI (FXa [2]): 3.2 ± 0.4 × 10^7 M^−1 s^−1
ka,app × SI relative to WT (FXa [2]): (0.73)
ka,app (FXa [2]): 9.8 ± 1.0 × 10^6 M^−1 s^−1
PZ enhancement (FXa [2]): 1778
SI (FXa [3]): 1.8 ± 0.1 moles ZPI/mole FXa
ka,app × SI (FXa [3]): 5.3 ± 0.9 × 10^5 M^−1 s^−1
ka,app × SI relative to WT (FXa [3]): (0.44)
ka,app (FXa [3]): 2.9 ± 0.3 × 10^5 M^−1 s^−1
H50 rate enhancement (FXa [3]): ~29 fold
B2: R305A: ZPI helix H site mutant (protein, UniProt Q9UK55 22-444, looked up, variant R305A)
Protein Z-dependent protease …: B1 Protein Z-dependent protease … with A293D, R305A

SI (FXa [1]): 4.0 ± 0.8 moles ZPI/mole FXa
ka,app × SI (FXa [1]): 4.5 ± 1.8 × 10^3 M^−1 s^−1
ka,app × SI relative to WT (FXa [1]): (0.28)
ka,app (FXa [1]): 1.1 ± 0.2 × 10^3 M^−1 s^−1
SI (FXa [2]): 6.6 ± 0.4 moles ZPI/mole FXa
ka,app × SI (FXa [2]): 2.7 ± 0.4 × 10^7 M^−1 s^−1
ka,app × SI relative to WT (FXa [2]): (0.61)
ka,app (FXa [2]): 4.1 ± 0.3 × 10^6 M^−1 s^−1
PZ enhancement (FXa [2]): 6000
SI (FXa [3]): 4.1 ± 0.6 moles ZPI/mole FXa
ka,app × SI (FXa [3]): 7.6 ± 1.3 × 10^4 M^−1 s^−1
ka,app × SI relative to WT (FXa [3]): (0.06)
ka,app (FXa [3]): 1.8 ± 0.1 × 10^4 M^−1 s^−1
H50 rate enhancement (FXa [3]): ~17 fold
B3: K260A/R263A/K308A/R310A: ZPI helix H site quadruple mutant (protein, UniProt Q9UK55 22-444, looked up, variant K260A R263A K308A R310A)
Protein Z-dependent protease …: B1 Protein Z-dependent protease … with K260A, R263A, A293D, K308A, R310A

SI (FXa [1]): 2.8 ± 0.4 moles ZPI/mole FXa
ka,app × SI (FXa [1]): 1.6 ± 0.3 × 10^4 M^−1 s^−1
ka,app × SI relative to WT (FXa [1]): (1)
ka,app (FXa [1]): 5.6 ± 0.3 × 10^3 M^−1 s^−1
SI (FXa [2]): 4.0 ± 0.3 moles ZPI/mole FXa
ka,app × SI (FXa [2]): 4.4 ± 0.3 × 10^7 M^−1 s^−1
ka,app × SI relative to WT (FXa [2]): (1.0)
ka,app (FXa [2]): 10.9 ± 0.1 × 10^6 M^−1 s^−1
PZ enhancement (FXa [2]): 2750
SI (FXa [3]): 2.4 ± 0.1 moles ZPI/mole FXa
ka,app × SI (FXa [3]): 1.2 ± 0.2 × 10^6 M^−1 s^−1
ka,app × SI relative to WT (FXa [3]): (1)
ka,app (FXa [3]): 5.1 ± 0.4 × 10^5 M^−1 s^−1
H50 rate enhancement (FXa [3]): ~75 fold
B4: WT: recombinant wild-type protein Z-dependent protease inhibitor (serpin A10) expressed in Escherichia coli (protein, UniProt Q9UK55 22-444, looked up)
Protein Z-dependent protease …: B1 Protein Z-dependent protease … with A293D

SI (FXa [1]): 2.4 ± 0.5 moles ZPI/mole FXa
ka,app × SI (FXa [1]): 1.3 ± 0.4 × 10^4 M^−1 s^−1
ka,app × SI relative to WT (FXa [1]): (0.81)
ka,app (FXa [1]): 5.4 ± 0.3 × 10^3 M^−1 s^−1
SI (FXa [2]): 2.6 ± 0.3 moles ZPI/mole FXa
ka,app × SI (FXa [2]): 1.5 ± 0.2 × 10^7 M^−1 s^−1
ka,app × SI relative to WT (FXa [2]): (0.34)
ka,app (FXa [2]): 5.6 ± 0.2 × 10^6 M^−1 s^−1
PZ enhancement (FXa [2]): 1153
SI (FXa [3]): 2.5 ± 0.4 moles ZPI/mole FXa
ka,app × SI (FXa [3]): 2.9 ± 0.8 × 10^5 M^−1 s^−1
ka,app × SI relative to WT (FXa [3]): (0.24)
ka,app (FXa [3]): 1.2 ± 0.1 × 10^5 M^−1 s^−1
H50 rate enhancement (FXa [3]): ~22 fold
B5: K260A/R263A: ZPI helix H site double mutant (protein, UniProt Q9UK55 22-444, looked up, variant K260A R263A)
Protein Z-dependent protease …: B1 Protein Z-dependent protease … with K260A, R263A, A293D

SI (FXa [1]): 2.7 ± 0.2 moles ZPI/mole FXa
ka,app × SI (FXa [1]): 1.0 ± 0.2 × 10^4 M^−1 s^−1
ka,app × SI relative to WT (FXa [1]): (0.62)
ka,app (FXa [1]): 3.8 ± 0.3 × 10^3 M^−1 s^−1
SI (FXa [2]): 2.9 ± 0.2 moles ZPI/mole FXa
ka,app × SI (FXa [2]): 2.7 ± 0.6 × 10^7 M^−1 s^−1
ka,app × SI relative to WT (FXa [2]): (0.61)
ka,app (FXa [2]): 9.4 ± 1.4 × 10^6 M^−1 s^−1
PZ enhancement (FXa [2]): 2700
SI (FXa [3]): 1.9 ± 0.2 moles ZPI/mole FXa
ka,app × SI (FXa [3]): 3.5 ± 0.5 × 10^5 M^−1 s^−1
ka,app × SI relative to WT (FXa [3]): (0.29)
ka,app (FXa [3]): 1.8 ± 0.1 × 10^5 M^−1 s^−1
H50 rate enhancement (FXa [3]): ~35 fold
B6: R310A: ZPI helix H site mutant (protein, UniProt Q9UK55 22-444, looked up, variant R310A)
Protein Z-dependent protease …: B1 Protein Z-dependent protease … with A293D, R310A

SI (FXa [1]): 2.9 ± 0.2 moles ZPI/mole FXa
ka,app × SI (FXa [1]): 1.7 ± 0.1 × 10^4 M^−1 s^−1
ka,app × SI relative to WT (FXa [1]): (1.1)
ka,app (FXa [1]): 5.8 ± 0.1 × 10^3 M^−1 s^−1
SI (FXa [2]): 2.7 ± 0.1 moles ZPI/mole FXa
ka,app × SI (FXa [2]): 2.6 ± 0.1 × 10^7 M^−1 s^−1
ka,app × SI relative to WT (FXa [2]): (0.59)
ka,app (FXa [2]): 9.5 ± 0.1 × 10^6 M^−1 s^−1
PZ enhancement (FXa [2]): 1524
SI (FXa [3]): 2.2 ± 0.3 moles ZPI/mole FXa
ka,app × SI (FXa [3]): 5.4 ± 0.9 × 10^5 M^−1 s^−1
ka,app × SI relative to WT (FXa [3]): (0.45)
ka,app (FXa [3]): 2.4 ± 0.1 × 10^5 M^−1 s^−1
H50 rate enhancement (FXa [3]): ~32 fold
B7: K308A: ZPI helix H site mutant (protein, UniProt Q9UK55 22-444, looked up, variant K308A)
Protein Z-dependent protease …: B1 Protein Z-dependent protease … with A293D, K308A

Source: paper PMC9190012, “Heparin activation of protein Z-dependent protease inhibitor (ZPI) allosterically blocks protein Z activation through an extended heparin-binding site” (The Journal of Biological Chemistry, 2022)
